From patent US8394607B2, “Anti-CD22 antibodies and immunoconjugates and methods of use” (Genentech, Inc., priority 2006, dated 2013) come the findings set out here.

“And” between values parts separate entries of the source, which are not always exact repeats. Equal values may be shown once.

The subject of test [1] is DoHH2 cells. As to the kind of experiment: DoHH2 xenograft tumor volume reduction. Format: in vivo. The conditions noted are these: Table 16 study; follicular lymphoma DOHH2 xenograft, CB17 SCID mice; 600 or 300 μg/m^2. From the text: In a similar study, using the same xenograft study protocol as disclosed in the above examples, varying the TDCs and doses administered, the efficacy of TDCs in follicular lymphoma DOHH2 xenografts in CB17 SCID mice was studied.

Test [2] concerns Granta-519 cells. Kind of test: Granta-519 xenograft tumor volume reduction. Format: in vivo, SCID mice. The conditions noted are these: Table 14 study, FIG. 19, 100 μg/m^2 drug at Day 0. Here is the method:
The ability of the thiomab drug conjugates prepared according to Example 11 to reduce B-cell tumor volume in xenograft models was tested according to the procedure disclosed in Example 9, herein. To SCID mice having Granta-519 cell xenograft tumors, control and anti-CD22 humanized 10F4v3 thiomab drug conjugates were administered at Day 0 in the doses shown in Table 14, below. The control HC(A118C) thiomab was anti-HER2 4D5 antibody.
Additional thiomab drug conjugates were tested in Granta-519 xenografts in CB17 SCID mice using the same protocol, although different drug doses were tested. The control antibody or control thiomab was anti-HER24D5 antibody or HC(A118C) thiomab.

In test [3] the target is T1, human CD22-beta-ECD-His tagged soluble antigen (Homo sapiens, UniProt P20273, A486R/Y639H).
T1 sequence (P20273 22-681 A486R/Y639H): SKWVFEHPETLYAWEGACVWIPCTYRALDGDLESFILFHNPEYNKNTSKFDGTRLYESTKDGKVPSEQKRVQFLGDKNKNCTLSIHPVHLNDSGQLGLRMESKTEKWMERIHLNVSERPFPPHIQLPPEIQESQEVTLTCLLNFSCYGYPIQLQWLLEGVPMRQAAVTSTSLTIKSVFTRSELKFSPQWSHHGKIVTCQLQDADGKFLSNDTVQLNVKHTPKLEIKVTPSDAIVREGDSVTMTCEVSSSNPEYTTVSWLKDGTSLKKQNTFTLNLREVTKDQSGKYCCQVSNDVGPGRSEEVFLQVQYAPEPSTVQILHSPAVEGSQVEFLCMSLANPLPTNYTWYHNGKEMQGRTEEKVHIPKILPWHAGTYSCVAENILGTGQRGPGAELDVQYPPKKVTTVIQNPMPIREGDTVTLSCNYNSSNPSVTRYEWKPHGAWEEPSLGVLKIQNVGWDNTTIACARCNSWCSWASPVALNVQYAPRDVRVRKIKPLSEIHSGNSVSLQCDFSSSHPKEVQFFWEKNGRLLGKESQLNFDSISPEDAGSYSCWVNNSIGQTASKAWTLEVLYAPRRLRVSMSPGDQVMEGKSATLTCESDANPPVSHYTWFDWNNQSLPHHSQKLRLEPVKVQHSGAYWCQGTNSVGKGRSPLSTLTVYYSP
Kind of test: BIACORE surface plasmon resonance binding to soluble CD22 ECD. The conditions noted are these: BIACORE 3000, 25° C., antibody coupled to chip, soluble CD22 ECD injected; one-to-one Langmuir model. Here is the method: The binding affinity of murine and humanized 10F4 antibody for soluble CD22 extracellular domain (ECD) was determined by surface plasmon resonance measurement using a BIACORE® 3000 system (Biacore, Inc., Piscataway, N.J.). Briefly, carboxymethylated dextran biosensor chips (CMS, Biacore Inc.) were activated with N-ethyl-N′-(3-dimethylaminopropyl)-carbodiimide hydrochloride (EDC) and N-hydroxysuccinimide (NHS) according to the supplier's instructions. These activated chips were coated with anti-CD22 IgG1 antibody 10F4 (murine or humanized) by dilution to 5 μg/ml with 10 mM sodium acetate, pH 4.8, before injection at a flow rate of 5 μl/minute to achieve approximately 500 response units (RU) of coupled antibody. Next, 1M ethanolamine was injected to block unreacted groups. […] Association rates (kon) and dissociation rates (koff) were calculated using a simple one-to-one Langmuir binding model (BIAevaluation Software version 3.2). The equilibrium dissociation constant (Kd) was calculated as the ratio koff/kon. Anti-CD22 antibody, RFB4, was used as a control (Chemicon International, Inc., Temecula, Calif., catalog no. CBL147).

Test [4] deals with cynomolgus monkey (cyno) CD22 expressed on the surface of CHO cells. As to the kind of experiment: Cell-based competitive binding assay with 125I antibody, Scatchard analysis. The conditions noted are these: 4 hours at 4° C. How it is done:
Briefly, CHO cells stably expressing full length human CD22 (SEQ ID NO:27) or cynomolgus monkey (cyno) CD22 (SEQ ID NO:31). […] A cell-based, competitive binding assay was performed using serially diluted, unlabeled anti-CD22 antibody. Antibodies were allowed to bind to the cells for 4 hours at 4° C. Binding affinity, KD, of the antibodies was determined in accordance with standard Scatchard analysis performed utilizing a non-linear curve fitting program (see, for example, Munson et al., Anal Biochem, 107: 220-239, 1980).

Test [5] has as its system BJAB-luc cells. As to the kind of experiment: BJAB-luc xenograft tumor volume reduction. Format: in vivo, SCID mice. To be noted: single I.V. treatment, 32 days. How it is done:
Sixty-five SCID mice were injected with 2×10^7 BJAB-luc cells subcutaneously in a volume of 0.2 ml per mouse in the flank. Cells were suspended in HBSS. When the mean tumor size reached 100-200 mm^3, mice were randomly grouped into four groups of 9 mice each and given a single I.V. treatment (via the tail vein) of the anti-CD22 or control antibody indicated in Table 4, below.
Mean tumor volume was monitored in each treatment group for 32 days post-antibody injection. Tumor measurements were taken with calipers. Efficacy of the toxin-conjugated anti-CD22 antibodies was determined by comparison to the control and unconjugated antibodies. […]

[6] abbreviates: Table 4 study, 200 μg/m^2 DM1 (naked antibody 3.4 mg/kg).
The mark [7] stands for this setting: Table 5 study, 200 μg/m^2 DM1 (naked antibody 4.5 mg/kg).

Chain of cynomolgus monkey (cyno) CD22 expressed on the surface of CHO cells (as listed by the source): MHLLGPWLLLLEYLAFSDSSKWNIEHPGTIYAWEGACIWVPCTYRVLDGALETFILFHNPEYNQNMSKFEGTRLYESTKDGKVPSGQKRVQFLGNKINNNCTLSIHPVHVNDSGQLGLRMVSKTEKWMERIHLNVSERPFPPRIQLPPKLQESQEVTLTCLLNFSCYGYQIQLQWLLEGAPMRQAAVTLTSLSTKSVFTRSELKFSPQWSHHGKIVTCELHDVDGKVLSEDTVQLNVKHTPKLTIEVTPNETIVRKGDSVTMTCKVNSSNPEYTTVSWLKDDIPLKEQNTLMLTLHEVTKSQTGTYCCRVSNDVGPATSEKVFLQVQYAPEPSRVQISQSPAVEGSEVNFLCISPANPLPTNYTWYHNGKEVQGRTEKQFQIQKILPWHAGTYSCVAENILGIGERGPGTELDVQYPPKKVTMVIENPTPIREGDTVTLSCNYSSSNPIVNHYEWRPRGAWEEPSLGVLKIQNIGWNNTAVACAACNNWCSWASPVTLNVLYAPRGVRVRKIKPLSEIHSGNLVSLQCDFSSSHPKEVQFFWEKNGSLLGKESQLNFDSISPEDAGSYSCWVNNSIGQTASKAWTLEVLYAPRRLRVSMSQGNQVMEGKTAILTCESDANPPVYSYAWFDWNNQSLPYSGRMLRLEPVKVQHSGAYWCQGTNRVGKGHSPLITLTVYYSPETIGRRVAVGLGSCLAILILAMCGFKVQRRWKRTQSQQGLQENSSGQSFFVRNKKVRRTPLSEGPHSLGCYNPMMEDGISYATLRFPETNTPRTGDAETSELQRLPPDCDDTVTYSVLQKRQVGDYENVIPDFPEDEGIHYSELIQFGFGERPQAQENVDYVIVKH

For “Thio 10F4v3-HC(A118C)-BMPEO-DM1: conjugation of A118C thio hu HC-10F4v3 and bmpeo-DM1”, the “efficacy on mean tumor volume” value in test [1] is recorded as “intermediate efficacy”.

With “Thio 10F4v3-LC(V205C)-MCvcPAB-MMAE: conjugation of V205C thio hu LC-10F4v3 and MC-val-cit-PAB-MMAE”, the mean tumor volume entry is “reduction in mean tumor volume for the duration of the study” in test [2] and “decrease in tumor volume during the study” in test [2] (listed as 10F4-LC-V210C-MCvcPAB-MMAE).

B1: Chimeric 10F4: chimeric 10F4 anti-CD22 antibody (antibody, V domains shown)
VH: QVQLQQSGPELVKPGASVKISCKASGYEFSRSWMNWVKQRPGQGREWIGRIYPGDGDTNYSGKFKGKATLTADKSSSTAYMQLSSLTSVDSAVYFCARDGSSWDWYFDVWGAGTTVTVSS
VL: DILMTQTPLSLPVSLGDQASISCRSSQSIVHSNGNTFLEWYLQKPGQSPKLLIYKVSNRFSGVPDRFSGSGSGTDFTLKISRVEAEDLGVYYCFQGSQFPYTFGGGTKVEIK
As for B1, in test [3], the “koff/10^−4” value was 4.2 and the “kon/10^5” value amounted to 0.26.

B2: Humanized 10F4v1: humanized 10F4 version 1, VH SEQ ID NO:16, VL SEQ ID NO:17, IgG1 (antibody, V domains shown)
VH: EVQLVESGGGLVQPGGSLRLSCAASGYEFSRSWMNWVRQAPGKGLEWVGRIYPGDGDTNYSGKFKGKATLTADKSSSTAYLQMNSLRAEDTAVYYCARDGSSWDWYFDYWGQGTLVTVSS
VL: DIQMTQSPSSLSASVGDRVTITCRSSQSIVHSNGNTFLEWYQQKPGKAPKLLIYKVSNRFSGVPSRFSGSRSGTDFTLTISSLQPEDFATYYCFQGSQFPYTFGQGTKVEIKR
modifications: IgG1 constant regions; sequence is synthesized
For the molecule B2, in test [4] (listed as Hu 10F4v1), the Kd was 1.4 nM and 1.8 nM. In addition, in test [5] (setting [6]), the “CR (number of animals attaining complete remission)” value stood at 0, the “PR (number of animals with tumor regressed 50-99% from its initial volume)” value was 0 and the “TI (tumor incidence at the last time point; tumor-bearing animals / total animals)” value is listed as 9/9.

B3: Humanized 10F4v2: humanized 10F4 version 2, N28V in HVR-L1, VH SEQ ID NO:16, VL SEQ ID NO:18, IgG1 (antibody, V domains shown)
VH: EVQLVESGGGLVQPGGSLRLSCAASGYEFSRSWMNWVRQAPGKGLEWVGRIYPGDGDTNYSGKFKGKATLTADKSSSTAYLQMNSLRAEDTAVYYCARDGSSWDWYFDYWGQGTLVTVSS
VL: DIQMTQSPSSLSASVGDRVTITCRSSQSIVHSVGNTFLEWYQQKPGKAPKLLIYKVSNRFSGVPSRFSGSRSGTDFTLTISSLQPEDFATYYCFQGSQFPYTFGQGTKVEIKR
modifications: IgG1 constant regions; sequence is synthesized
For the molecule B3, the dissociation constant Kd in test [4] turned out to be 2.1 nM. In test [5] (setting [7]), the “CR (number of animals attaining complete remission)” value was found to be 0, the “PR (number of animals with tumor regressed 50-99% from its initial volume)” value turned out to be 0 and the “TI (tumor incidence at the last time point; tumor-bearing animals / total animals)” value is given as 9/9.
